Measurements taken from patent publication US20140227280A1 (CENTRE NATIONAL DE LA RECHERCHE SCIENTIFIQUE, published 2014).

B1: mouse MCM8 protein (other)
chain: MSGAYRGRGFGRGRFQSWKRGRGGGNFSGRWRERENRVDLNEASGKHASAQASQPLLQQSTLDQFIPYKGWKLYFSEVYSNNSPFIEKIQAFEKFFTRHIDLYDKDEIERKGSILVDFKELTKADEITNLIPDIENALRDAPEKTLACMGLAIHQVLTKDLERHAAELQAQEGLSNGGETMVNVPHIYARVYNYEPLTHLKNIRATCYGKYISIRGTVVRVSNIKPLCTNMAFQCAACGEIQSFPLPDGKYTLPTKCPVPACRGRSFAPLRSSPLTVTLDWQLIKIQELMSDAQREAGRIPRTIECELVHDLVDSCVPGDTVTVTGIVKVSNSEEGSRNKNDKCMFLLYIEANSVSNSKGPKAQTAEDGCKHGTLMEFSLKDLYAIREIQAEENLLKLVVNSLCPVIFGHELVKAGLTLALFGGSQKYADDKNRIPIRGDPHVLIVGDPGLGKSQMLQAACNVAPRGVYVCGNTTTSSGLTVTLSKDSSSGDFALEAGALVLGDQGICGIDEFDKMGNQHQALLEAMEQQSISLAKAGVVCSLPARTSIVAAANPVGGHYNKARTVSENLKMGSALLSRFDLVFILLDTPNEQHDHLLSEHVIAIRAGKQKAVSSATVTRVLSQDSNTSVLEVVSEKPLSERLKVAPGEQTDPIPHQLLRKYIGYARQYVHPRLSTDAAQALQDFYLELRKQSQRVGSSPITTRQLESLIRLTEARARLELREEATREDAEDIIEIMKHSMLGTYSDEFGNLDFERSQHGSGMSNRSTAKRFISALNSIAERTYNNIFQYHQLRQIAKELNIQVADFENFIGSLNDQGYLLKKGPKIYQLQTM
notes: Endogenous protein in mouse testes extracts and MEF cell extracts

Experiments:
mouse MCM8 protein = target: B1; assay: co-immunoprecipitation from mouse testes extracts, western blot (FIG. 18A)
From the text: (§1) FIG. 18A represents immunoprecipitations of MCM8 (IP anti-MCM8; lane C) and MCM9 (IP anti-MCM9; lane D) from testes extracts blotted against MCM9 (panel 1), MCM8 (panel 2), MCM2 (panel 3) and MCM5 (panel 4). To normalize the loading, IgGs of each IP are also shown (panel 5).

MCM2 = target: T1, MCM2 (mouse, UniProt P97310 2-904); assay: as above
T1 construct: Detected by western blot (sc-9839) in the immunoprecipitates from mouse testes extracts; also called member of the MCM2-7 complex
From the text: as §1

T1 sequence (P97310 2-904 limits assumed): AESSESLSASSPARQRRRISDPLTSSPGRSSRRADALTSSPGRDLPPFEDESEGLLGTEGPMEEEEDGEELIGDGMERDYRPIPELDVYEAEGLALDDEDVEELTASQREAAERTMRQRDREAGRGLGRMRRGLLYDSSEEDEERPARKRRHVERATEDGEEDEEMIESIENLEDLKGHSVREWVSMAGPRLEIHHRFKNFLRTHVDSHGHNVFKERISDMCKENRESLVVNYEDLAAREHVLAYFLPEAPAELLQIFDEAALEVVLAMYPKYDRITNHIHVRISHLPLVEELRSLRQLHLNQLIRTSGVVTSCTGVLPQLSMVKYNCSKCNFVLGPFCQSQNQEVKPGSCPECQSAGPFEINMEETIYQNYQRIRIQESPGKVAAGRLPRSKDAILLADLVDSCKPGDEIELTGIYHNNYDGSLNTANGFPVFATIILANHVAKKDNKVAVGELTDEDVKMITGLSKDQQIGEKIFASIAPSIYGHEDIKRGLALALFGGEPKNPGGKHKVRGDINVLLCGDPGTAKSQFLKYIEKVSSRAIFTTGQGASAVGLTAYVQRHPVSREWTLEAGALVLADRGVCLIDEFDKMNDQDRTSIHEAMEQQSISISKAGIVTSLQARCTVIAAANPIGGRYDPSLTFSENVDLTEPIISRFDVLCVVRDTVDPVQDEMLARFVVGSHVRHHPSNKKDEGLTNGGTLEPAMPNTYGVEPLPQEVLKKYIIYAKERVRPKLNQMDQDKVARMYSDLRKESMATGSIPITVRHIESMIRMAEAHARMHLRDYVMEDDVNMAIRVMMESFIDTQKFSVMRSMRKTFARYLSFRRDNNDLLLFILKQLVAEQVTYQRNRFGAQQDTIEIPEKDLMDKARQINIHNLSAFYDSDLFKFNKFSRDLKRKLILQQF

binding result (mouse MCM8 protein)	binding result (MCM2)	Binder
no binding		MCM5 (other, mouse, UniProt P49718 2-734, looked up, Detected by western blot (sc-22780) in the immunoprecipitates from mouse testes extracts; also called member of the MCM2-7 complex) SGFDDPGIFYSDSFGGDPGAEEGQARKSQLQRRFKEFLRQYRVGTDRTGFTFKYRDELKRHYNLGEYWIEVEMEDLASFDEELADHLHKQPAEHLQLLEEAAKEVADEVTRPRPAGDELLQDIQVMLKSDASPSSIRILKSDMMSHLVKIPGIIISASAVRAKATRISIQCRSCHNTLTNIAMRPGLEGYALPRKCNMDQAGRPKCPLDPYFIMPDKCKCVDFQTLKLQELPDAVPHGEMPRHMQLYCDRYLCDKVVPGNRVTIMGIYSIKKFGLNPSKGRDRVGVGIRSSYIRVLGIQVDTDGSGRSFAGSVSPQEEEEFRRLAALPNIYELISKSISPSIFGGMDMKKAIACLLFGGSRKRLPDGLTRRGDINLLMLGDPGTAKSQLLKFVEKCSPIGVYTSGKGSSAAGLTASVIRDPSSRNFIMEGGAMVLADGGVVCIDEFDKMREDDRVAIHEAMEQQTISIAKAGITTTLNSRCSVLAAANSVFGRWDETKGEDNIDFMPTILSRFDMIFIVKDEHNEERDMMLAKHVMTLHVSALTQTQAVEGEIDLAKMKKFIAYCRARCGPRLSAEAAEKLKNRYIIMRSGARQHERDSDRRSSIPITVRQLEAIVRIAEALSKMKLQPFATEADVEEALRLFQVSTLDAALSGNLSGVEGFTTQEDQEMLSRIEKQLKRRFAIGSQVSEHSIVQDFTKQKYPEHAIRKVLQLMLRRGEIQHRMQRKVLYRLK
	no binding	B1
